Reference: patent US20240026443A1 (University of Washington, published 2024)

Target: T1, DddA (intact deaminase domain of the bacterial toxin-derived double stranded DNA cytosine deaminase) (Burkholderia cenocepacia (strain H111), UniProt P0DUH5 1290-1427, limits assumed)
T1 construct: also called double stranded DNA deaminase
T1 sequence: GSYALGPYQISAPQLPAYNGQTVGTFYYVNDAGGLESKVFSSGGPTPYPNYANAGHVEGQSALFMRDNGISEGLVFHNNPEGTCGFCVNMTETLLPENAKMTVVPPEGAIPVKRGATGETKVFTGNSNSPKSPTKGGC
Assay: X-ray crystal structure of the complex

B1: double stranded DNA deaminase A immunity (DddAI) protein (other)
chain: MYADDFDGEIEIDEVDSLVEFLSRRPAFDANNFVLTFEESGFPQLNIFAKNDIAVVYYMDIGENFVSKGNSASGGTEKFYENKLGGEVDLSKDCVVSKEQMIEAAKQFFATKQRPEQLTWSEL
notes: Expressed inside P. aeruginosa from an arabinose-inducible promoter at the Tn7 attachment site; also called DddIA; DddA cognate immunity determinant
B1: binds.
